Experimental data as given in article PMC3426363 (Pharmaceutical research, 2011).
Like-named read-outs stand apart in the source and are kept apart here. Each block holds one molecule with its values, some of them ahead of it.

Experiments:
UGT1A3 = molecular target: T1, UGT1A3 (Homo sapiens, UniProt P35503); assay: UGT1A3 glucuronidation kinetics of flavonols; assay type: in vitro ADME; conditions: substrate inhibition constant
T1 sequence (P35503 29-534): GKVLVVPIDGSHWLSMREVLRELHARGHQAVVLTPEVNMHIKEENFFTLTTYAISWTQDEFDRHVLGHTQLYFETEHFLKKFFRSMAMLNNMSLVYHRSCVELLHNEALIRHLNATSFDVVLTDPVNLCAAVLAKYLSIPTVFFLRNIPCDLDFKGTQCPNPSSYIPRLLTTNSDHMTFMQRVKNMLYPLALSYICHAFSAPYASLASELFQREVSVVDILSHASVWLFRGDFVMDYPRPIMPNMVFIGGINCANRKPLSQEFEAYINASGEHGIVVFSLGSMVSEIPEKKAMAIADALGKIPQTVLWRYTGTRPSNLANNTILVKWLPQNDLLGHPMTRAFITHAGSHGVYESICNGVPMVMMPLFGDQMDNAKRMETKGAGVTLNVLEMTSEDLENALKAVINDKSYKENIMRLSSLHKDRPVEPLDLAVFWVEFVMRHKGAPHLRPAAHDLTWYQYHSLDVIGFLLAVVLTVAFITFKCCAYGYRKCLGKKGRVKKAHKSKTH

UGT1A10 = molecular target: T2, UGT1A10 (Homo sapiens, UniProt Q9HAW8); assay: UGT1A10 glucuronidation kinetics of flavonols; assay type: in vitro ADME; conditions: substrate inhibition constant
T2 sequence (Q9HAW8 26-530): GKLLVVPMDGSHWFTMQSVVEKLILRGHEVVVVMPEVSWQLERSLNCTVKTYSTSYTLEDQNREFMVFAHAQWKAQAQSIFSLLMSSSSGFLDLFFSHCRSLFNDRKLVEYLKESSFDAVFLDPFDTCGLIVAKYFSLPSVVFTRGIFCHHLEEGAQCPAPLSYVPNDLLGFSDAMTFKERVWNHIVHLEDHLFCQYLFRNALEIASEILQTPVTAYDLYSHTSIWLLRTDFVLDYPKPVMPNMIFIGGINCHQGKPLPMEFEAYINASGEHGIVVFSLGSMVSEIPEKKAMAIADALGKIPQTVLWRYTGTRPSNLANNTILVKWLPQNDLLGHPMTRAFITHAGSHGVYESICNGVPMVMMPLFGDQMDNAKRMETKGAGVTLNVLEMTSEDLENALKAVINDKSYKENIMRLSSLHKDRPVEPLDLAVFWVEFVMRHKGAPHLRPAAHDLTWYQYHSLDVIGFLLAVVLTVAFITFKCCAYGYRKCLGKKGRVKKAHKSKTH

UGT1A1 [1] = molecular target: T3, UGT1A1 (Homo sapiens, UniProt P22309); assay: UGT1A1 glucuronidation kinetics of flavonols; assay type: in vitro ADME; conditions: for Ks: substrate inhibition constant
T3 sequence (P22309 26-533): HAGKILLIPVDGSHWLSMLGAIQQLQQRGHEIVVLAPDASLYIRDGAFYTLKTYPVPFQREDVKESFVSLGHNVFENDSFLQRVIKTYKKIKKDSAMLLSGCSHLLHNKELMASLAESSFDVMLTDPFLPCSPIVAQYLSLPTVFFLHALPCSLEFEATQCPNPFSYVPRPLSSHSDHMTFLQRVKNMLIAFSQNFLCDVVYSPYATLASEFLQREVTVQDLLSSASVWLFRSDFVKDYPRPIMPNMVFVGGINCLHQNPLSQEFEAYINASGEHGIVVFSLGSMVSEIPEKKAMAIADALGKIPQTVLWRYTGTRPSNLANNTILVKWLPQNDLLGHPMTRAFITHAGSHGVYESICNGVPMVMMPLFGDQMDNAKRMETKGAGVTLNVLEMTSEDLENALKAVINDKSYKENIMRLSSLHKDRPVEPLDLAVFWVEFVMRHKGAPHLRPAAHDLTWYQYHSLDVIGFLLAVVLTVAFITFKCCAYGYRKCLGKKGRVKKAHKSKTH

UGT1A7 = molecular target: T4, UGT1A7 (Homo sapiens, UniProt Q9HAW7); assay: UGT1A7 glucuronidation kinetics of flavonols; assay type: in vitro ADME; conditions: formation of 3-O-glucuronide, substrate inhibition constant
T4 sequence (Q9HAW7 26-530): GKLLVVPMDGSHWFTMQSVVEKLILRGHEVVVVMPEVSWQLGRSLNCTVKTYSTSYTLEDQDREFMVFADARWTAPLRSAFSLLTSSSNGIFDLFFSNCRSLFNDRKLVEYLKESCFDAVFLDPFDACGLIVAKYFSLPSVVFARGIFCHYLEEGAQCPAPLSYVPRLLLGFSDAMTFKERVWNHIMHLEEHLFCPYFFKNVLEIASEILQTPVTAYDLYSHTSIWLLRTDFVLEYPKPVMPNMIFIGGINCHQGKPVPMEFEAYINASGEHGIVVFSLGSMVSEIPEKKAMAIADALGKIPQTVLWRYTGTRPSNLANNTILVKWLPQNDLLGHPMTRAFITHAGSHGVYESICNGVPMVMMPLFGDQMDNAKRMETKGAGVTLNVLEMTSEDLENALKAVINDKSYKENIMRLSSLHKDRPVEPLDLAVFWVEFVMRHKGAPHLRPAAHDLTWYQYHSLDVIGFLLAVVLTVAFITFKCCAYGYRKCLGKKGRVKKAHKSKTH

UGT1A9 = molecular target: T5, UGT1A9 (Homo sapiens, UniProt O60656); assay: UGT1A9 glucuronidation kinetics of flavonols; assay type: in vitro ADME
T5 sequence (O60656 26-530): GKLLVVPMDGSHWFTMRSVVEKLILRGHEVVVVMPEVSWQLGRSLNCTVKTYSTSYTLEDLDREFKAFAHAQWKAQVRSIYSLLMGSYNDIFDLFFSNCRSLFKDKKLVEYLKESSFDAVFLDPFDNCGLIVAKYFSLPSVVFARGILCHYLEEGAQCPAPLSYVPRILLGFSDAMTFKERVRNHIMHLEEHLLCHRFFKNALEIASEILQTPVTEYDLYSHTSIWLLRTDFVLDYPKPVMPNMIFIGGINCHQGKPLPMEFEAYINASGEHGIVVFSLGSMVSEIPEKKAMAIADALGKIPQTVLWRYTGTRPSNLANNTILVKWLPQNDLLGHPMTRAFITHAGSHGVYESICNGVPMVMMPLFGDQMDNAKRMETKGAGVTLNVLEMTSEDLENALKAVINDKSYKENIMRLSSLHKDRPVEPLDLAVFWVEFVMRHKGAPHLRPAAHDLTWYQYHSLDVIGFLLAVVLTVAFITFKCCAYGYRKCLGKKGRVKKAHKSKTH

UGT1A1 [2] = molecular target: T3, UGT1A1; conditions: cited from earlier work
[3] = substrate: O=c1c(O)c(-c2ccccc2)oc2cc(O)cc(O)c12; assay: UGT1A3 glucuronidation kinetics of flavonols; assay type: in vitro ADME, human; conditions: other: UGT1A3, pH 6.5
[4] = substrate: O=c1c(O)c(-c2ccccc2)oc2cc(O)ccc12; assay: UGT1A3 glucuronidation kinetics of flavonols; assay type: in vitro ADME, human; conditions: other: UGT1A3, pH 6.5
[5] = substrate: O=c1c(O)c(-c2ccc(O)cc2)oc2cc(O)cc(O)c12; assay: UGT1A3 glucuronidation kinetics of flavonols; assay type: in vitro ADME, human; conditions: other: UGT1A3; formation of 7-O-glucuronide; pH 6.5
[6] = substrate: O=c1c(O)c(-c2ccccc2)oc2cc(O)cc(O)c12; assay: UGT1A1 glucuronidation kinetics of flavonols; assay type: in vitro ADME, human; conditions: other: UGT1A1, pH 6.5
[7] = substrate: O=c1c(O)c(-c2ccccc2)oc2cc(O)ccc12; assay: UGT1A1 glucuronidation kinetics of flavonols; assay type: in vitro ADME, human; conditions: other: UGT1A1, pH 6.5
[8] = substrate: O=c1c(O)c(-c2ccc(O)cc2)oc2cc(O)ccc12; assay: UGT1A1 glucuronidation kinetics of flavonols; assay type: in vitro ADME, human; conditions: other: UGT1A1, pH 6.5
[9] = substrate: O=c1c(O)c(-c2ccc(O)cc2)oc2cc(O)cc(O)c12; assay: UGT1A1 glucuronidation kinetics of flavonols; assay type: in vitro ADME, human; conditions: other: UGT1A1; formation of 7-O-glucuronide; pH 6.5

Ks (UGT1A3; formation of 7-O-glucuronide): 7.52 ± 9.58 µM
Ks (UGT1A10; formation of 3-O-glucuronide): 30.01 ± 8.00 µM
Ks (UGT1A10; formation of 7-O-glucuronide): 51.37 ± 27.15 µM
Ks (UGT1A1 [1]; formation of 7-O-glucuronide): 2.81 ± 0.67 µM
Molecule: O=c1c(O)c(-c2ccc(O)cc2)oc2cc(O)cc(O)c12 [3,5,7,4’QHF, 3,5,7,4’-tetrahydroxyflavone]

Ks (UGT1A3; formation of 3-O-glucuronide): 100.05 ± 94.80 µM
Ks (UGT1A3; formation of 7-O-glucuronide): 50.00 ± 80.17 µM
Ks (UGT1A7): 309.17 ± 127.39 µM
Ks (UGT1A9; formation of 3-O-glucuronide, substrate inhibition constant): 30.13 ± 7.11 µM
Vmax (UGT1A9; formation of 7-O-glucuronide): 2.04 nmol/mg/min
Ks/Km ratio (UGT1A1 [1]; 3-O-glucuronidation): 0.38
Ks/Km ratio (UGT1A1 [1]; 7-O-glucuronidation): 1.16
Vmax (UGT1A1 [1]; formation of 3-O-glucuronide): 1.02 nmol/mg/min
Ks (UGT1A1 [1]; formation of 3-O-glucuronide): 0.60 ± 0.38 µM
Vmax (UGT1A1 [1]; formation of 7-O-glucuronide): 3.04 nmol/mg/min
Ks (UGT1A1 [1]; formation of 7-O-glucuronide): 1.21 ± 0.23 µM
Molecule: O=c1c(O)c(-c2ccccc2)oc2cc(O)ccc12 [3,7DHF, 3,7-dihydroxyflavone]

Molecule: C#C[C@]1(O)CC[C@H]2[C@@H]3CCc4cc(O)ccc4[C@H]3CC[C@@]21C [ethinylestradiol]
Km (UGT1A1 [2]; reported value): 49.8 µM
Ks/Km ratio (UGT1A1 [2]; substrate inhibition at high concentrations of UDPGA): 1.61

B1: UGT1A3 (Homo sapiens) (protein)
chain: T1 sequence (P35503 29-534)
Km ([3]; formation of 3-O-glucuronide): 0.84 ± 0.18 µM
Vmax ([3]; formation of 3-O-glucuronide): 0.17 ± 0.01 nmol/mg/min
Vmax/Km ([3]; formation of 3-O-glucuronide): 200 µL/min/mg
Km ([3]; formation of 7-O-glucuronide): 2.12 ± 1.24 µM
Vmax ([3]; formation of 7-O-glucuronide): 3.44 ± 0.84 nmol/mg/min
Vmax/Km ([3]; formation of 7-O-glucuronide): 1620 µL/min/mg
Km ([4]; formation of 3-O-glucuronide): 8.81 ± 2.72 µM
Vmax ([4]; formation of 3-O-glucuronide): 0.18 ± 0.02 nmol/mg/min
Vmax/Km ([4]; formation of 3-O-glucuronide): 20 µL/min/mg
Km ([4]; formation of 7-O-glucuronide): 7.02 ± 3.76 µM
Vmax ([4]; formation of 7-O-glucuronide): 1.89 ± 0.36 nmol/mg/min
Vmax/Km ([4]; formation of 7-O-glucuronide): 270 µL/min/mg
Km [5]: 3.30 ± 3.10 µM
Vmax [5]: 0.86 ± 0.35 nmol/mg/min
Vmax/Km [5]: 260 µL/min/mg

B2: UGT1A1 (Homo sapiens) (protein)
chain: T3 sequence (P22309 26-533)
Km ([6]; formation of 3-O-glucuronide): 0.31 ± 0.10 µM
Vmax ([6]; formation of 3-O-glucuronide): 0.82 ± 0.14 nmol/mg/min
Vmax/Km ([6]; formation of 3-O-glucuronide): 2650 µL/min/mg
Km ([6]; formation of 7-O-glucuronide): 0.51 ± 0.08 µM
Vmax ([6]; formation of 7-O-glucuronide): 4.59 ± 0.46 nmol/mg/min
Vmax/Km ([6]; formation of 7-O-glucuronide): 9000 µL/min/mg
Km ([7]; formation of 3-O-glucuronide): 1.57 ± 1.09 µM
Vmax ([7]; formation of 3-O-glucuronide): 1.02 ± 0.54 nmol/mg/min
Vmax/Km ([7]; formation of 3-O-glucuronide): 650 µL/min/mg
Km ([7]; formation of 7-O-glucuronide): 1.04 ± 0.19 µM
Vmax ([7]; formation of 7-O-glucuronide): 3.04 ± 0.42 nmol/mg/min
Vmax/Km ([7]; formation of 7-O-glucuronide): 2920 µL/min/mg
Km ([8]; formation of 3-O-glucuronide): 0.30 ± 0.05 µM
Vmax ([8]; formation of 3-O-glucuronide): 0.68 ± 0.05 nmol/mg/min
Vmax/Km ([8]; formation of 3-O-glucuronide): 2270 µL/min/mg
Km ([8]; formation of 7-O-glucuronide): 0.43 ± 0.10 µM
Vmax ([8]; formation of 7-O-glucuronide): 1.08 ± 0.13 nmol/mg/min
Vmax/Km ([8]; formation of 7-O-glucuronide): 2520 µL/min/mg
Km [9]: 0.13 ± 0.03 µM
Vmax [9]: 1.38 ± 0.14 nmol/mg/min
Vmax/Km [9]: 10620 µL/min/mg
